According to PMC9352680, “A comprehensive thermodynamic model for RNA binding by the Saccharomyces cerevisiae Pumilio protein PUF4”:

T1: PUF4 RNA-binding domain (Saccharomyces cerevisiae, UniProt P25339 537-888)
T1 sequence: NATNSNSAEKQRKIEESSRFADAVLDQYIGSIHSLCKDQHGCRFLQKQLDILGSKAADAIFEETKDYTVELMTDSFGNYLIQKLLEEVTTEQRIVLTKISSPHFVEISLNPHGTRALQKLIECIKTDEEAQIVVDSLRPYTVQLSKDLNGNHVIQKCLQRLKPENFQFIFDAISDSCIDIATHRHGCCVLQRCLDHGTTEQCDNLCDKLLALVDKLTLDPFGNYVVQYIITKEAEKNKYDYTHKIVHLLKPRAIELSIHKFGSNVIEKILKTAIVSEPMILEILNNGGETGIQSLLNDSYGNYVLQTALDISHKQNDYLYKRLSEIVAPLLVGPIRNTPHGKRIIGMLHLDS

B1: Ib_S1_P5E.1_K5.1_C5.1_H5.1_[A4G]_A5.1_[T5C]_F5.1_T5.1 (ssRNA)
RNA: UCUCUUUGUGCUAUUAUCUCUU
B2: Ib_S1_P5E.1_K5.1_C5.1_H5.1_[T3C]_A5.1_[T6C]_F5.1_T5.1 (ssRNA)
RNA: UCUCUUUGCAUCAUUAUCUCUU
B3: Ib_S1_P5E.1_K5.1_C5.1_H5.1_[T3C]_A5.1_[A7T]_F5.1_T5.1 (ssRNA)
RNA: UCUCUUUGCAUUUUUAUCUCUU
B4: Id_ii_S4_P5E.2_K5.1_C5.2_[C-2T]_[T-1A]_H5.1_A5.1_F5.1_T5.2_[T11A] (ssRNA)
RNA: UUUGACAACUGAUCGUUCUUUCUUAUGUAUUAUUAAAUUCUUUCUCGAUCAGUUGUCUUU
B5: Id_ii_S4_P5E.3_K5.2_C5.2_[T-1G]_H5.2_A5.1_F5.1_T5.2_[A12T] (ssRNA)
RNA: UUUGACAACUGAUCGUUCUUUCUCGUAUAUUAUUAUUUUCUUUCUCGAUCAGUUGUCUUU
B6: Id_ii_S4_P5E.2_K5.1_C5.2_[T-1A]_H5.1_A5.1_F5.1_T5.2_[A12T] (ssRNA)
RNA: UUUGACAACUGAUCGUUCUUUCUCAUGUAUUAUUAUUUUCUUUCUCGAUCAGUUGUCUUU
B7: Id_ii_S4_P5E.3_K5.2_C5.2_[T-1C]_H5.2_A5.1_F5.1_T5.2_[T11C]_[A12T] (ssRNA)
RNA: UUUGACAACUGAUCGUUCUUUCUCCUAUAUUAUUACUUUCUUUCUCGAUCAGUUGUCUUU
B8: Id_ii_S4_P5E.2_K5.1_C5.2_[C-2A]_H5.1_A5.1_F5.1_T5.2_[A12G] (ssRNA)
RNA: UUUGACAACUGAUCGUUCUUUCUAUUGUAUUAUUAUGUUCUUUCUCGAUCAGUUGUCUUU
B9: Id_ii_S4_P5E.2_K5.1_C5.2_[C-2A]_H5.1_A5.1_F5.1_T5.2_[T11A]_[A12C] (ssRNA)
RNA: UUUGACAACUGAUCGUUCUUUCUAUUGUAUUAUUAACUUCUUUCUCGAUCAGUUGUCUUU
B10: Id_ii_S4_P5E.2_K5.1_C5.2_[T-1G]_H5.1_A5.1_F5.1_T5.2_[T11G]_[A12T] (ssRNA)
RNA: UUUGACAACUGAUCGUUCUUUCUCGUGUAUUAUUAGUUUCUUUCUCGAUCAGUUGUCUUU
B11: Id_ii_S4_P5E.3_K5.2_C5.2_H5.2_A5.1_F5.1_T5.2_[T11C]_[A12T] (ssRNA)
RNA: UUUGACAACUGAUCGUUCUUUCUCUUAUAUUAUUACUUUCUUUCUCGAUCAGUUGUCUUU
B12: Id_ii_S4_P5E.3_K5.2_C5.2_[C-2A]_[T-1C]_H5.2_A5.1_F5.1_T5.2_[T11C]_[A12G] (ssRNA)
RNA: UUUGACAACUGAUCGUUCUUUCUACUAUAUUAUUACGUUCUUUCUCGAUCAGUUGUCUUU
B13: Id_ii_S4_P5E.3_K5.2_C5.2_[C-2T]_[T-1G]_H5.2_A5.1_F5.1_T5.2_[A12T] (ssRNA)
RNA: UUUGACAACUGAUCGUUCUUUCUUGUAUAUUAUUAUUUUCUUUCUCGAUCAGUUGUCUUU
B14: Id_ii_S4_P5E.2_K5.1_C5.2_[T-1C]_H5.1_A5.1_F5.1_T5.2_[A12T] (ssRNA)
RNA: UUUGACAACUGAUCGUUCUUUCUCCUGUAUUAUUAUUUUCUUUCUCGAUCAGUUGUCUUU
B15: Id_ii_S4_P5E.2_K5.1_C5.2_[T-1G]_H5.1_A5.1_F5.1_T5.2_[T11G]_[A12C] (ssRNA)
RNA: UUUGACAACUGAUCGUUCUUUCUCGUGUAUUAUUAGCUUCUUUCUCGAUCAGUUGUCUUU
B16: Id_ii_S4_P5E.3_K5.2_C5.2_[C-2G]_H5.2_A5.1_F5.1_T5.2_[A12T] (ssRNA)
RNA: UUUGACAACUGAUCGUUCUUUCUGUUAUAUUAUUAUUUUCUUUCUCGAUCAGUUGUCUUU
B17: Id_ii_S4_P5E.3_K5.2_C5.2_[C-2T]_[T-1G]_H5.2_A5.1_F5.1_T5.2_[T11G]_[A12T] (ssRNA)
RNA: UUUGACAACUGAUCGUUCUUUCUUGUAUAUUAUUAGUUUCUUUCUCGAUCAGUUGUCUUU
B18: Id_ii_S4_P5E.3_K5.2_C5.2_H5.2_A5.1_F5.1_T5.2_[A12T] (ssRNA)
RNA: UUUGACAACUGAUCGUUCUUUCUCUUAUAUUAUUAUUUUCUUUCUCGAUCAGUUGUCUUU
B19: Id_ii_S4_P5E.2_K5.1_C5.2_[C-2T]_H5.1_A5.1_F5.1_T5.2_[T11A]_[A12T] (ssRNA)
RNA: UUUGACAACUGAUCGUUCUUUCUUUUGUAUUAUUAAUUUCUUUCUCGAUCAGUUGUCUUU
B20: Id_ii_S4_P5E.3_K5.2_C5.2_[C-2A]_H5.2_A5.1_F5.1_T5.2_[T11C] (ssRNA)
RNA: UUUGACAACUGAUCGUUCUUUCUAUUAUAUUAUUACAUUCUUUCUCGAUCAGUUGUCUUU
B21: Id_ii_S4_P5E.3_K5.2_C5.2_[C-2T]_[T-1C]_H5.2_A5.1_F5.1_T5.2_[T11C]_[A12G] (ssRNA)
RNA: UUUGACAACUGAUCGUUCUUUCUUCUAUAUUAUUACGUUCUUUCUCGAUCAGUUGUCUUU
B22: Id_ii_S4_P5E.3_K5.2_C5.2_[C-2T]_[T-1G]_H5.2_A5.1_F5.1_T5.2_[T11A]_[A12C] (ssRNA)
RNA: UUUGACAACUGAUCGUUCUUUCUUGUAUAUUAUUAACUUCUUUCUCGAUCAGUUGUCUUU
B23: Id_ii_S4_P5E.3_K5.2_C5.2_[C-2G]_H5.2_A5.1_F5.1_T5.2_[T11C]_[A12G] (ssRNA)
RNA: UUUGACAACUGAUCGUUCUUUCUGUUAUAUUAUUACGUUCUUUCUCGAUCAGUUGUCUUU
B24: Id_ii_S4_P5E.3_K5.2_C5.2_[T-1A]_H5.2_A5.1_F5.1_T5.2_[T11C]_[A12C] (ssRNA)
RNA: UUUGACAACUGAUCGUUCUUUCUCAUAUAUUAUUACCUUCUUUCUCGAUCAGUUGUCUUU
B25: Id_ii_S4_P5E.2_K5.1_C5.2_[T-1A]_H5.1_A5.1_F5.1_T5.2_[T11A]_[A12T] (ssRNA)
RNA: UUUGACAACUGAUCGUUCUUUCUCAUGUAUUAUUAAUUUCUUUCUCGAUCAGUUGUCUUU
B26: Id_ii_S4_P5E.3_K5.2_C5.2_[C-2A]_[T-1A]_H5.2_A5.1_F5.1_T5.2_[T11C]_[A12C] (ssRNA)
RNA: UUUGACAACUGAUCGUUCUUUCUAAUAUAUUAUUACCUUCUUUCUCGAUCAGUUGUCUUU
B27: Id_ii_S4_P5E.3_K5.2_C5.2_[T-1A]_H5.2_A5.1_F5.1_T5.2_[T11A]_[A12C] (ssRNA)
RNA: UUUGACAACUGAUCGUUCUUUCUCAUAUAUUAUUAACUUCUUUCUCGAUCAGUUGUCUUU
B28: Id_ii_S4_P5E.3_K5.2_C5.2_[C-2T]_[T-1A]_H5.2_A5.1_F5.1_T5.2_[A12T] (ssRNA)
RNA: UUUGACAACUGAUCGUUCUUUCUUAUAUAUUAUUAUUUUCUUUCUCGAUCAGUUGUCUUU
B29: Id_ii_S4_P5E.3_K5.2_C5.2_[C-2T]_H5.2_A5.1_F5.1_T5.2_[T11G]_[A12C] (ssRNA)
RNA: UUUGACAACUGAUCGUUCUUUCUUUUAUAUUAUUAGCUUCUUUCUCGAUCAGUUGUCUUU
B30: Id_ii_S4_P5E.3_K5.2_C5.2_[C-2A]_[T-1C]_H5.2_A5.1_F5.1_T5.2_[T11C]_[A12T] (ssRNA)
RNA: UUUGACAACUGAUCGUUCUUUCUACUAUAUUAUUACUUUCUUUCUCGAUCAGUUGUCUUU
B31: Id_ii_S4_P5E.3_K5.2_C5.2_[C-2A]_[T-1C]_H5.2_A5.1_F5.1_T5.2_[A12C] (ssRNA)
RNA: UUUGACAACUGAUCGUUCUUUCUACUAUAUUAUUAUCUUCUUUCUCGAUCAGUUGUCUUU
B32: Id_ii_S4_P5E.2_K5.1_C5.2_[C-2A]_[T-1C]_H5.1_A5.1_F5.1_T5.2_[T11A]_[A12T] (ssRNA)
RNA: UUUGACAACUGAUCGUUCUUUCUACUGUAUUAUUAAUUUCUUUCUCGAUCAGUUGUCUUU
B33: Id_ii_S4_P5E.3_K5.2_C5.2_[C-2G]_H5.2_A5.1_F5.1_T5.2_[T11G]_[A12T] (ssRNA)
RNA: UUUGACAACUGAUCGUUCUUUCUGUUAUAUUAUUAGUUUCUUUCUCGAUCAGUUGUCUUU
B34: Id_ii_S4_P5E.2_K5.1_C5.2_[T-1A]_H5.1_A5.1_F5.1_T5.2_[T11A] (ssRNA)
RNA: UUUGACAACUGAUCGUUCUUUCUCAUGUAUUAUUAAAUUCUUUCUCGAUCAGUUGUCUUU
B35: Id_ii_S4_P5E.3_K5.2_C5.2_[C-2T]_[T-1G]_H5.2_A5.1_F5.1_T5.2_[T11G]_[A12C] (ssRNA)
RNA: UUUGACAACUGAUCGUUCUUUCUUGUAUAUUAUUAGCUUCUUUCUCGAUCAGUUGUCUUU
B36: Id_ii_S4_P5E.2_K5.1_C5.2_H5.1_A5.1_F5.1_T5.2_[A12C] (ssRNA)
RNA: UUUGACAACUGAUCGUUCUUUCUCUUGUAUUAUUAUCUUCUUUCUCGAUCAGUUGUCUUU
B37: Id_ii_S4_P5E.3_K5.2_C5.2_[C-2T]_H5.2_A5.1_F5.1_T5.2_[T11G]_[A12T] (ssRNA)
RNA: UUUGACAACUGAUCGUUCUUUCUUUUAUAUUAUUAGUUUCUUUCUCGAUCAGUUGUCUUU
B38: Id_ii_S4_P5E.2_K5.1_C5.2_[C-2T]_H5.1_A5.1_F5.1_T5.2_[A12C] (ssRNA)
RNA: UUUGACAACUGAUCGUUCUUUCUUUUGUAUUAUUAUCUUCUUUCUCGAUCAGUUGUCUUU
B39: Id_ii_S4_P5E.3_K5.2_C5.2_[T-1A]_H5.2_A5.1_F5.1_T5.2_[T11A]_[A12T] (ssRNA)
RNA: UUUGACAACUGAUCGUUCUUUCUCAUAUAUUAUUAAUUUCUUUCUCGAUCAGUUGUCUUU
B40: Id_ii_S4_P5E.2_K5.1_C5.2_[C-2A]_[T-1C]_H5.1_A5.1_F5.1_T5.2_[A12C] (ssRNA)
RNA: UUUGACAACUGAUCGUUCUUUCUACUGUAUUAUUAUCUUCUUUCUCGAUCAGUUGUCUUU
B41: Id_ii_S4_P5E.3_K5.2_C5.2_[T-1A]_H5.2_A5.1_F5.1_T5.2_[T11A]_[A12G] (ssRNA)
RNA: UUUGACAACUGAUCGUUCUUUCUCAUAUAUUAUUAAGUUCUUUCUCGAUCAGUUGUCUUU
B42: Id_ii_S4_P5E.3_K5.2_C5.2_H5.2_A5.1_F5.1_T5.2_[T11C]_[A12G] (ssRNA)
RNA: UUUGACAACUGAUCGUUCUUUCUCUUAUAUUAUUACGUUCUUUCUCGAUCAGUUGUCUUU
B43: Id_ii_S4_P5E.2_K5.1_C5.2_H5.1_A5.1_F5.1_T5.2_[T11A]_[A12C] (ssRNA)
RNA: UUUGACAACUGAUCGUUCUUUCUCUUGUAUUAUUAACUUCUUUCUCGAUCAGUUGUCUUU
B44: Ib_S1_P5E.1_K5.1_C5.1_H5.1_[T3C]_A5.1_[A7G]_F5.1_T5.1 (ssRNA)
RNA: UCUCUUUGCAUUGUUAUCUCUU

Each binder was assayed against T1, PUF4 RNA-binding domain (assay: Mg; RNA-MaP; 20 mM Na-HEPES pH 7.4, 30 mM KOAc, 0.75 mM MgCl2, 0.1% Tween-20, 5% glycerol, 0.1 mg/mL BSA, 2 mM DTT; 25 C; 0.0125-409.6 nM protein). Conditions: tags: N-His6-TEV cleaved; C-SNAP kept, Cy3B-labelled; label: tethered on chip by stalled RNA polymerase.

Binder | Kd [nM]
B1 | 28
B2 | 1980
B3 | 1540
B4 | 10.7
B5 | 15.6
B6 | 2.17
B7 | 65.6
B8 | 4.86
B9 | 5.14
B10 | 1.95
B11 | 96.6
B12 | 1150
B13 | 0.445
B14 | 1.38
B15 | 1.94
B16 | 28.2
B17 | 1
B18 | 168
B19 | 2.21
B20 | 203
B21 | 538
B22 | 0.672

Binder | Kd [nM]
B23 | 176
B24 | 116
B25 | 3.49
B26 | 896
B27 | 143
B28 | 23.8
B29 | 416
B30 | 122
B31 | 216
B32 | 2.62
B33 | 51.7
B34 | 8.86
B35 | 1.12
B36 | 1.53
B37 | 500
B38 | 2.29
B39 | 214
B40 | 2.14
B41 | > 2300
B42 | 470
B43 | 3
B44 | 2260
